Data as given in patent US20090208416A1.

Columns and labels:
[1] = target: NKG2A on rhesus monkey (Macaca mulatta) NK cells (rhesus monkey (Macaca mulatta)) (UniProt Q9MZJ3); assay: FACS rhesus whole blood, animal O967
[2] = target: NKG2A on rhesus monkey (Macaca mulatta) NK cells (rhesus monkey (Macaca mulatta)) (UniProt Q9MZJ3); assay: FACS rhesus whole blood, animal 31828
[3] = target: NKG2A on rhesus monkey (Macaca mulatta) NK cells (rhesus monkey (Macaca mulatta)) (UniProt Q9MZJ3); assay: FACS rhesus whole blood, animal 34459
[4] = target: NKG2A on rhesus monkey (Macaca mulatta) NK cells (rhesus monkey (Macaca mulatta)) (UniProt Q9MZJ3); assay: FACS rhesus whole blood, animal R00007
[5] = target: NKG2A on rhesus monkey (Macaca mulatta) NK cells (rhesus monkey (Macaca mulatta)) (UniProt Q9MZJ3); assay: FACS rhesus whole blood, animal R00013
[6] = target: NKG2A on rhesus monkey (Macaca mulatta) NK cells (rhesus monkey (Macaca mulatta)) (UniProt Q9MZJ3); assay: FACS rhesus whole blood, animal R00023
[7] = target: NKG2A on rhesus monkey (Macaca mulatta) NK cells (rhesus monkey (Macaca mulatta)) (UniProt Q9MZJ3); assay: FACS rhesus whole blood, animal R00025
[8] = target: NKG2A on rhesus monkey (Macaca mulatta) NK cells (rhesus monkey (Macaca mulatta)) (UniProt Q9MZJ3); assay: FACS rhesus whole blood, animal R00037
[9] = target: NKG2A on rhesus monkey (Macaca mulatta) NK cells (rhesus monkey (Macaca mulatta)) (UniProt Q9MZJ3); assay: FACS rhesus whole blood, animal R00041
[10] = target: NKG2A on rhesus monkey (Macaca mulatta) NK cells (rhesus monkey (Macaca mulatta)) (UniProt Q9MZJ3); assay: FACS rhesus whole blood, animal R00061
[11] = target: NKG2A on rhesus monkey (Macaca mulatta) NK cells (rhesus monkey (Macaca mulatta)) (UniProt Q9MZJ3); assay: FACS rhesus whole blood, animal R00077
[12] = target: NKG2A on rhesus monkey (Macaca mulatta) NK cells (rhesus monkey (Macaca mulatta)) (UniProt Q9MZJ3); assay: FACS rhesus whole blood, animal R00085
[13] = target: NKG2A on rhesus monkey (Macaca mulatta) NK cells (rhesus monkey (Macaca mulatta)) (UniProt Q9MZJ3); assay: FACS rhesus whole blood, animal R00093
[14] = target: NKG2A on rhesus monkey (Macaca mulatta) NK cells (rhesus monkey (Macaca mulatta)) (UniProt Q9MZJ3); assay: FACS rhesus whole blood, animal R00099
[15] = target: NKG2A on rhesus monkey (Macaca mulatta) NK cells (rhesus monkey (Macaca mulatta)) (UniProt Q9MZJ3); assay: FACS rhesus whole blood, animal R00101
[16] = target: NKG2A on rhesus monkey (Macaca mulatta) NK cells (rhesus monkey (Macaca mulatta)) (UniProt Q9MZJ3); assay: FACS rhesus whole blood, animal R99273
[17] = target: NKG2A on cynomolgus monkey NK cells (cynomolgus monkey) (UniProt Q68VD2); assay: FACS cynomolgus whole blood, animal 1221
UniProt Q68VD2, sequence (Q68VD2 entry or part of it): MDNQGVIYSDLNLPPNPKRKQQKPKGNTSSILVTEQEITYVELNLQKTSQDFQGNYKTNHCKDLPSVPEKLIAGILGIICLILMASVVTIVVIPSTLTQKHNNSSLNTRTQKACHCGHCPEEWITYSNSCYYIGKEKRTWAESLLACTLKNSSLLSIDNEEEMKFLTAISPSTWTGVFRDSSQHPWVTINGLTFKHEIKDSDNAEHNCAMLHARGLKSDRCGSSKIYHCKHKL

[18] = target: NKG2A on cynomolgus monkey NK cells (cynomolgus monkey) (UniProt Q68VD2); assay: FACS cynomolgus whole blood, animal M859
[19] = target: NKG2A on cynomolgus monkey NK cells (cynomolgus monkey) (UniProt Q68VD2); assay: FACS cynomolgus whole blood, animal R390
[20] = target: NKG2A on cynomolgus monkey NK cells (cynomolgus monkey) (UniProt Q68VD2); assay: FACS cynomolgus whole blood, animal T270
[21] = target: NKG2A on cynomolgus monkey NK cells (cynomolgus monkey) (UniProt Q68VD2); assay: FACS cynomolgus whole blood, animal T788
[22] = target: NKG2A on cynomolgus monkey NK cells (cynomolgus monkey) (UniProt Q68VD2); assay: FACS cynomolgus whole blood, animal AK565
[23] = target: NKG2A on cynomolgus monkey NK cells (cynomolgus monkey) (UniProt Q68VD2); assay: FACS cynomolgus whole blood, animal AK729
[24] = target: NKG2A on cynomolgus monkey NK cells (cynomolgus monkey) (UniProt Q68VD2); assay: FACS cynomolgus whole blood, animal AL210
[25] = target: NKG2A on cynomolgus monkey NK cells (cynomolgus monkey) (UniProt Q68VD2); assay: FACS cynomolgus whole blood, animal AL303
[26] = target: NKG2A on cynomolgus monkey NK cells (cynomolgus monkey) (UniProt Q68VD2); assay: FACS cynomolgus whole blood, animal AL389
[27] = target: NKG2A on rhesus monkey (Macaca mulatta) NK cells (rhesus monkey (Macaca mulatta)) (UniProt Q9MZJ3); assay: FACS rhesus whole blood, mean over animals
[28] = target: NKG2A on rhesus monkey (Macaca mulatta) NK cells (rhesus monkey (Macaca mulatta)) (UniProt Q9MZJ3); assay: FACS rhesus whole blood, animal R00073 (5.6 kg)
[29] = target: NKG2A on rhesus monkey (Macaca mulatta) NK cells (rhesus monkey (Macaca mulatta)) (UniProt Q9MZJ3); assay: FACS rhesus whole blood, animal R00073 (6.1 kg)
[30] = target: NKG2A on cynomolgus monkey NK cells (cynomolgus monkey) (UniProt Q68VD2); assay: FACS cynomolgus whole blood, mean of 10 animals
[31] = target: NKG2A on rhesus monkey (Macaca mulatta) NK cells (rhesus monkey (Macaca mulatta)) (UniProt Q9MZJ3); assay: FACS rhesus whole blood, animal R00055

UniProt Q9MZJ3, sequence (Q9MZJ3 whole entry): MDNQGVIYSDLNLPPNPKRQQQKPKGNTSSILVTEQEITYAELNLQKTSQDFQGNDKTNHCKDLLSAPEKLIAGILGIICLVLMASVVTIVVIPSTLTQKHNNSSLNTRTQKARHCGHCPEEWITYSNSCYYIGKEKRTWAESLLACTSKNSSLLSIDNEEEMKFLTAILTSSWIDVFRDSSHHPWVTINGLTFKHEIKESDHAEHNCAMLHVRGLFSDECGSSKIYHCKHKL

Substance: Z199 anti-NKG2A monoclonal antibody
- % NK+ [1]: 84.8%
- MFI [1]: 62.3
- MFI NK+ [1]: 73.4
- % NK+ [2]: 99.8%
- MFI [2]: 101
- MFI NK+ [2]: 101
- % NK+ [3]: 96.2%
- MFI [3]: 63.8
- MFI NK+ [3]: 66.3
- % NK+ [4]: 99.6%
- MFI [4]: 34.9
- MFI NK+ [4]: 35
- % NK+ [5]: 97.8%
- MFI [5]: 38.8
- MFI NK+ [5]: 39.7
- % NK+ [6]: 96.4%
- MFI [6]: 34
- MFI NK+ [6]: 35.3
- % NK+ [7]: 97.3%
- MFI [7]: 30
- MFI NK+ [7]: 30.9
- % NK+ [8]: 96.9%
- MFI [8]: 26.7
- MFI NK+ [8]: 27.5
- % NK+ [9]: 89.6%
- MFI [9]: 33.1
- MFI NK+ [9]: 36.9
- % NK+ [10]: 40.7%
- MFI [10]: 1.6
- MFI NK+ [10]: 2.4
- % NK+ [11]: 97.1%
- MFI [11]: 30.4
- MFI NK+ [11]: 31.3
- % NK+ [12]: 91.9%
- MFI [12]: 68.4
- MFI NK+ [12]: 74.4
- % NK+ [13]: 97.9%
- MFI [13]: 81.9
- MFI NK+ [13]: 83.6
- % NK+ [14]: 97.6%
- MFI [14]: 31.1
- MFI NK+ [14]: 31.8
- % NK+ [15]: 98.7%
- MFI [15]: 37.1
- MFI NK+ [15]: 37.6
- % NK+ [16]: 98%
- MFI [16]: 32.7
- MFI NK+ [16]: 33.4
- % NK+ [17]: 96.7%
- MFI [17]: 105
- MFI NK+ [17]: 109
- % NK+ [18]: 95.1%
- MFI [18]: 144
- MFI NK+ [18]: 152
- % NK+ [19]: 99%
- MFI [19]: 32.3
- MFI NK+ [19]: 32.6
- % NK+ [20]: 97.7%
- MFI [20]: 113
- MFI NK+ [20]: 116
- % NK+ [21]: 97%
- MFI [21]: 123
- MFI NK+ [21]: 126
- % NK+ [22]: 90.7%
- MFI [22]: 28.2
- MFI NK+ [22]: 31
- % NK+ [23]: 99.4%
- MFI [23]: 37.4
- MFI NK+ [23]: 37.7
- % NK+ [24]: 92.7%
- MFI [24]: 126
- MFI NK+ [24]: 136
- % NK+ [25]: 99.1%
- MFI [25]: 129
- MFI NK+ [25]: 130
- % NK+ [26]: 95.5%
- MFI [26]: 223
- MFI NK+ [26]: 234
- % NK+ (Mean) [27]: 93.2%
- MFI (Mean) [27]: 29.6
- MFI NK+ (Mean) [27]: 30.6
- % NK+ [28]: 99.1%
- MFI [28]: 31.6
- MFI NK+ [28]: 31.9
- % NK+ [29]: 98%
- MFI [29]: 31.9
- MFI NK+ [29]: 32.6
- % NK+ (Mean) [30]: 96.3%
- MFI (Mean) [30]: 106
- MFI NK+ (Mean) [30]: 110

Substance: mouse IgG2b isotype control (antibody)
- % NK+ [1]: 0.5%
- MFI [1]: 0.7
- % NK+ [2]: 0.5%
- MFI [2]: 0.7
- % NK+ [3]: 1.2%
- MFI [3]: 0.7
- % NK+ [4]: 0.7%
- MFI [4]: 0.4
- % NK+ [5]: 0.2%
- MFI [5]: 0.6
- % NK+ [6]: 0.6%
- MFI [6]: 0.3
- % NK+ [7]: 0.4%
- MFI [7]: 0.4
- % NK+ [8]: 0.3%
- MFI [8]: 0.5
- % NK+ [9]: 0.3%
- MFI [9]: 0.4
- % NK+ [31]: 0.9%
- MFI [31]: 0.6
- % NK+ [10]: 0.2%
- MFI [10]: 0.6
- % NK+ [11]: 0.5%
- MFI [11]: 0.4
- % NK+ [12]: 0.3%
- MFI [12]: 0.7
- % NK+ [13]: 0.4%
- MFI [13]: 0.6
- % NK+ [14]: 0.3%
- MFI [14]: 0.5
- % NK+ [15]: 0.4%
- MFI [15]: 0.5
- % NK+ [16]: 0.6%
- MFI [16]: 0.4
- % NK+ [17]: 1.3%
- MFI [17]: 0.8
- % NK+ [18]: 0.2%
- MFI [18]: 0.6
- % NK+ [19]: 0.2%
- MFI [19]: 0.5
- % NK+ [20]: 0.2%
- MFI [20]: 0.6
- % NK+ [21]: 0.4%
- MFI [21]: 0.6
- % NK+ [22]: 0.3%
- MFI [22]: 0.6
- % NK+ [23]: 0.3%
- MFI [23]: 0.6
- % NK+ [24]: 0.3%
- MFI [24]: 0.7
- % NK+ [25]: 0.14%
- MFI [25]: 0.7
- % NK+ [26]: 0.4%
- MFI [26]: 0.8
- % NK+ (Mean) [27]: 0.5%
- MFI (Mean) [27]: 0.5
- % NK+ [28]: 0.39%
- MFI [28]: 0.4
- % NK+ [29]: 0.3%
- MFI [29]: 0.3
- % NK+ (Mean) [30]: 0.4%
- MFI (Mean) [30]: 0.7
